Target: SARS-CoV-2 NTD-RBD-foldon (SARS-CoV-2 (strain Wuhan-1/2020) | bacteriophage T4) (UniProt P0DTC2)
Experiment: SEC-MALS

“SARS-CoV-2 NTD-RBD-foldon (from UniProt P0DTC2 14-541)” was tested, and the stoichiometry N was 3.
